The stoichiometry N is the number of molecules, sites or subunits per partner or assembly.

Stoichiometry N data for one substance are collected here from publication PMC10827748.

The test deals with Smac/DIABLO, endogenous (human (endogenous in HEK293F and HEK293T)). The test is described as follows: cryo-EM structure; FLAG-BIRC6 purified from HEK293F, cross-linked with 0.01% glutaraldehyde; global map 3.6 Å; a class with endogenous co-purified Smac in the central cavity at 4.7 Å.

Substance “Smac/DIABLO, endogenous (natural protein)” showed a stoichiometry N of 2.
